The text below walks through data of patent publication US20190015483A1 (CSL BEHRING RECOMBINANT FACILITY, published 2019).

The target of this test is T1, recombinant Factor VIII (CSL627, rVIII-SingleChain) (Homo sapiens (Human), UniProt P00451 20-2351).
T1 construct: also called FVIII
T1 sequence: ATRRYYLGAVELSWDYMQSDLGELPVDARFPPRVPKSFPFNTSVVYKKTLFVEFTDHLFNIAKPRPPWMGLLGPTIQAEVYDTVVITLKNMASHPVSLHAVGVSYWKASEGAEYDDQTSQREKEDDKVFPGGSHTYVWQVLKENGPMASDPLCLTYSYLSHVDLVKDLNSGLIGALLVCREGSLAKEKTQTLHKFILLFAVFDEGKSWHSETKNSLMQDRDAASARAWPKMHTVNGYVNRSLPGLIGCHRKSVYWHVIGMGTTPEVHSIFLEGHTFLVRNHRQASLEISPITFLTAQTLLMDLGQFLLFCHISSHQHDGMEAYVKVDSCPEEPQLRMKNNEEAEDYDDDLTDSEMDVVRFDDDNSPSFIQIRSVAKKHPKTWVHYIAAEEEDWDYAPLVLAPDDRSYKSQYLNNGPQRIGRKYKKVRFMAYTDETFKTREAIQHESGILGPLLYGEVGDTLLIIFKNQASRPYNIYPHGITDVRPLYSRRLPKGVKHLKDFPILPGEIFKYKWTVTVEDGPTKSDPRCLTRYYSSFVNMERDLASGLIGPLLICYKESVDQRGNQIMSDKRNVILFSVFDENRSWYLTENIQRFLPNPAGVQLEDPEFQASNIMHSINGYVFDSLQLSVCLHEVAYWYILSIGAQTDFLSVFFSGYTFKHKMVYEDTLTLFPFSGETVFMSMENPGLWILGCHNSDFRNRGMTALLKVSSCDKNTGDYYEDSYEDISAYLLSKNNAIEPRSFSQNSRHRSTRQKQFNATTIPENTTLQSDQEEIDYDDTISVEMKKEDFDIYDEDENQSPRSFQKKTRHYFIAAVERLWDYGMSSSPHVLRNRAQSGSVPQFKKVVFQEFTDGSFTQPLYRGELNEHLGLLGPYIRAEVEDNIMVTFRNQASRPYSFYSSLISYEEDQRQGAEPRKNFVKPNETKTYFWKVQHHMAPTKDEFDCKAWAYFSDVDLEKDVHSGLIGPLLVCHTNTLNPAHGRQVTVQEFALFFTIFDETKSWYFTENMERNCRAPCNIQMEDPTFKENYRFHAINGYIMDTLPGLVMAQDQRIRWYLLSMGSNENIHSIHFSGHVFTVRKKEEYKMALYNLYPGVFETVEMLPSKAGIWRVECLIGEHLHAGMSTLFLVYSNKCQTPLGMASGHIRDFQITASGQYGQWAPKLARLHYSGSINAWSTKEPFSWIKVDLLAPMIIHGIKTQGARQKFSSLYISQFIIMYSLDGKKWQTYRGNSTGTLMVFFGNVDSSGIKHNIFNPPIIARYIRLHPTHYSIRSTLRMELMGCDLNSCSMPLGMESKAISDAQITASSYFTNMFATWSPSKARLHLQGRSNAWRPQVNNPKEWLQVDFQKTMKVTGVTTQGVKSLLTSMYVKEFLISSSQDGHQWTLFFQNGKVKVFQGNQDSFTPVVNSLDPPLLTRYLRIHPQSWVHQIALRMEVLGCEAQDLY
The experiment in a line: SPR, anti-His capture, FVIII injected, 37 C. On the procedure: Binding kinetics were investigated by surface plasmon resonance using a Biacore 4000 biosensor at 37° C. Each mutant was captured from cell culture medium to a density of 40-150 RU on a CM-5 sensor chip pre-immobilised with anti-His antibody (14,000 RU). In an initial screening study, FVIII was injected over the captured mutants for 5 minutes at 1 nM and dissociation monitored for 5 minutes.
All sensorgrams were double referenced by subtraction of signals from a reference spot (containing only immobilised anti His antibody) and from a blank injection. Binding kinetics were determined by fitting the double referenced sensorgrams to a 1:1 kinetic model.

The term Kd denotes the free concentration of one partner at which half of the binding sites on the other are occupied at equilibrium, for simple one-to-one binding. Broadly, the koff is a measure of how fast the partners let go of each other. As a reminder, the kon is the second-order rate constant of association.

B1: Hu-vWF[764-1270]-8His S766Y-P769M (other)
chain: SLYCRMPMVKLVCPADNLRAEGLECTKTCQNYDLECMSMGCVSGCLCPPGMVRHENRCVALERCPCFHQGKEYAPGETVKIGCNTCVCRDRKWNCTDHVCDATCSTIGMAHYLTFDGLKYLFPGECQYVLVQDYCGSNPGTFRILVGNKGCSHPSVKCKKRVTILVEGGEIELFDGEVNVKRPMKDETHFEVVESGRYIILLLGKALSVVWDRHLSISVVLKQTYQEKVCGLCGNFDGIQNNDLTSSNLQVEEDPVDFGNSWKVSSQCADTRKVPLDSSPATCHNNIMKQTMVDSSCRILTSDVFQDCNKLVDPEPYLDVCIYDTCSCESIGDCACFCDTIAAYAHVCAQHGKVVTWRTATLCPQSCEERNLRENGYECEWRYNSCAPACQVTCQHPEPLACPVQCVEGCHAHCPPGKILDELLQTCVDPEDCPVCEVAGRRFASGKKVTLNPSDPEHCQICHCDVVNLTCEACQEPGGLVVPPTDAPVSPTTLYVEDISEPPLHDFHHHHHHHH
Turning to B1, the Kd was 0.108 nM, the off-rate (koff) stood at 0.000511 s⁻¹ and the on-rate constant (kon) was 4.75e+06 M⁻¹ s⁻¹.

B2: Hu-vWF[764-1270]-8His S766Y-P769R (other)
chain: SLYCRRPMVKLVCPADNLRAEGLECTKTCQNYDLECMSMGCVSGCLCPPGMVRHENRCVALERCPCFHQGKEYAPGETVKIGCNTCVCRDRKWNCTDHVCDATCSTIGMAHYLTFDGLKYLFPGECQYVLVQDYCGSNPGTFRILVGNKGCSHPSVKCKKRVTILVEGGEIELFDGEVNVKRPMKDETHFEVVESGRYIILLLGKALSVVWDRHLSISVVLKQTYQEKVCGLCGNFDGIQNNDLTSSNLQVEEDPVDFGNSWKVSSQCADTRKVPLDSSPATCHNNIMKQTMVDSSCRILTSDVFQDCNKLVDPEPYLDVCIYDTCSCESIGDCACFCDTIAAYAHVCAQHGKVVTWRTATLCPQSCEERNLRENGYECEWRYNSCAPACQVTCQHPEPLACPVQCVEGCHAHCPPGKILDELLQTCVDPEDCPVCEVAGRRFASGKKVTLNPSDPEHCQICHCDVVNLTCEACQEPGGLVVPPTDAPVSPTTLYVEDISEPPLHDFHHHHHHHH
Turning to B2, the Kd is 0.045 nM, the koff amounted to 0.000295 s⁻¹ and the on-rate constant (kon) turned out to be 6.55e+06 M⁻¹ s⁻¹.

B3: Hu-vWF[764-1270]-8His S766Y-P769V (other)
chain: SLYCRVPMVKLVCPADNLRAEGLECTKTCQNYDLECMSMGCVSGCLCPPGMVRHENRCVALERCPCFHQGKEYAPGETVKIGCNTCVCRDRKWNCTDHVCDATCSTIGMAHYLTFDGLKYLFPGECQYVLVQDYCGSNPGTFRILVGNKGCSHPSVKCKKRVTILVEGGEIELFDGEVNVKRPMKDETHFEVVESGRYIILLLGKALSVVWDRHLSISVVLKQTYQEKVCGLCGNFDGIQNNDLTSSNLQVEEDPVDFGNSWKVSSQCADTRKVPLDSSPATCHNNIMKQTMVDSSCRILTSDVFQDCNKLVDPEPYLDVCIYDTCSCESIGDCACFCDTIAAYAHVCAQHGKVVTWRTATLCPQSCEERNLRENGYECEWRYNSCAPACQVTCQHPEPLACPVQCVEGCHAHCPPGKILDELLQTCVDPEDCPVCEVAGRRFASGKKVTLNPSDPEHCQICHCDVVNLTCEACQEPGGLVVPPTDAPVSPTTLYVEDISEPPLHDFHHHHHHHH
Consider B3, for which the Kd was found to be 0.0849 nM, the dissociation rate constant (koff) was 0.000565 s⁻¹ and the kon amounted to 6.65e+06 M⁻¹ s⁻¹.

B4: Hu-vWF[764-1270]-8His S766Y-P769S (other)
chain: SLYCRSPMVKLVCPADNLRAEGLECTKTCQNYDLECMSMGCVSGCLCPPGMVRHENRCVALERCPCFHQGKEYAPGETVKIGCNTCVCRDRKWNCTDHVCDATCSTIGMAHYLTFDGLKYLFPGECQYVLVQDYCGSNPGTFRILVGNKGCSHPSVKCKKRVTILVEGGEIELFDGEVNVKRPMKDETHFEVVESGRYIILLLGKALSVVWDRHLSISVVLKQTYQEKVCGLCGNFDGIQNNDLTSSNLQVEEDPVDFGNSWKVSSQCADTRKVPLDSSPATCHNNIMKQTMVDSSCRILTSDVFQDCNKLVDPEPYLDVCIYDTCSCESIGDCACFCDTIAAYAHVCAQHGKVVTWRTATLCPQSCEERNLRENGYECEWRYNSCAPACQVTCQHPEPLACPVQCVEGCHAHCPPGKILDELLQTCVDPEDCPVCEVAGRRFASGKKVTLNPSDPEHCQICHCDVVNLTCEACQEPGGLVVPPTDAPVSPTTLYVEDISEPPLHDFHHHHHHHH
For B4, the Kd is 0.113 nM, the koff came out at 0.000511 s⁻¹ and the on-rate constant (kon) stood at 4.51e+06 M⁻¹ s⁻¹.

B5: Hu-vWF[764-1270]-8His S766Y-P769T (other)
chain: SLYCRTPMVKLVCPADNLRAEGLECTKTCQNYDLECMSMGCVSGCLCPPGMVRHENRCVALERCPCFHQGKEYAPGETVKIGCNTCVCRDRKWNCTDHVCDATCSTIGMAHYLTFDGLKYLFPGECQYVLVQDYCGSNPGTFRILVGNKGCSHPSVKCKKRVTILVEGGEIELFDGEVNVKRPMKDETHFEVVESGRYIILLLGKALSVVWDRHLSISVVLKQTYQEKVCGLCGNFDGIQNNDLTSSNLQVEEDPVDFGNSWKVSSQCADTRKVPLDSSPATCHNNIMKQTMVDSSCRILTSDVFQDCNKLVDPEPYLDVCIYDTCSCESIGDCACFCDTIAAYAHVCAQHGKVVTWRTATLCPQSCEERNLRENGYECEWRYNSCAPACQVTCQHPEPLACPVQCVEGCHAHCPPGKILDELLQTCVDPEDCPVCEVAGRRFASGKKVTLNPSDPEHCQICHCDVVNLTCEACQEPGGLVVPPTDAPVSPTTLYVEDISEPPLHDFHHHHHHHH
Turning to B5, the Kd is 0.0979 nM, the koff came to 0.0005 s⁻¹ and the kon was determined as 5.11e+06 M⁻¹ s⁻¹.

B6: Hu-vWF[764-1270]-8His S766Y-P769N (other)
chain: SLYCRNPMVKLVCPADNLRAEGLECTKTCQNYDLECMSMGCVSGCLCPPGMVRHENRCVALERCPCFHQGKEYAPGETVKIGCNTCVCRDRKWNCTDHVCDATCSTIGMAHYLTFDGLKYLFPGECQYVLVQDYCGSNPGTFRILVGNKGCSHPSVKCKKRVTILVEGGEIELFDGEVNVKRPMKDETHFEVVESGRYIILLLGKALSVVWDRHLSISVVLKQTYQEKVCGLCGNFDGIQNNDLTSSNLQVEEDPVDFGNSWKVSSQCADTRKVPLDSSPATCHNNIMKQTMVDSSCRILTSDVFQDCNKLVDPEPYLDVCIYDTCSCESIGDCACFCDTIAAYAHVCAQHGKVVTWRTATLCPQSCEERNLRENGYECEWRYNSCAPACQVTCQHPEPLACPVQCVEGCHAHCPPGKILDELLQTCVDPEDCPVCEVAGRRFASGKKVTLNPSDPEHCQICHCDVVNLTCEACQEPGGLVVPPTDAPVSPTTLYVEDISEPPLHDFHHHHHHHH
B6: the dissociation constant (Kd) worked out at 0.0325 nM, the koff stood at 0.00052 s⁻¹ and the kon came out at 1.6e+07 M⁻¹ s⁻¹.

B7: Hu-vWF[764-1270]-8His S766Y-P769Q (other)
chain: SLYCRQPMVKLVCPADNLRAEGLECTKTCQNYDLECMSMGCVSGCLCPPGMVRHENRCVALERCPCFHQGKEYAPGETVKIGCNTCVCRDRKWNCTDHVCDATCSTIGMAHYLTFDGLKYLFPGECQYVLVQDYCGSNPGTFRILVGNKGCSHPSVKCKKRVTILVEGGEIELFDGEVNVKRPMKDETHFEVVESGRYIILLLGKALSVVWDRHLSISVVLKQTYQEKVCGLCGNFDGIQNNDLTSSNLQVEEDPVDFGNSWKVSSQCADTRKVPLDSSPATCHNNIMKQTMVDSSCRILTSDVFQDCNKLVDPEPYLDVCIYDTCSCESIGDCACFCDTIAAYAHVCAQHGKVVTWRTATLCPQSCEERNLRENGYECEWRYNSCAPACQVTCQHPEPLACPVQCVEGCHAHCPPGKILDELLQTCVDPEDCPVCEVAGRRFASGKKVTLNPSDPEHCQICHCDVVNLTCEACQEPGGLVVPPTDAPVSPTTLYVEDISEPPLHDFHHHHHHHH
In the case of B7, the binding result is listed as “no binding”.
